Publication PMC11846989 (Communications Biology, 2025)

Columns and labels:
SEC-MALS = biological target: the molecule itself; assay: SEC-MALS
SEC = biological target: the molecule itself; assay: SEC

| Protein | stoichiometry N (SEC-MALS) | stoichiometry N (SEC) |
| --- | --- | --- |
| full-length human GBP2 (guanylate-binding protein 2), wild type (natural protein, UniProt P32456 1-591, looked up) MAPEINLPGPMSLIDNTKGQLVVNPEALKILSAITQPVVVVAIVGLYRTGKSYLMNKLAGKKNGFSLGSTVKSHTKGIWMWCVPHPKKPEHTLVLLDTEGLGDIEKGDNENDSWIFALAILLSSTFVYNSMGTINQQAMDQLHYVTELTDRIKANSSPGNNSVDDSADFVSFFPAFVWTLRDFTLELEVDGEPITADDYLELSLKLRKGTDKKSKSFNDPRLCIRKFFPKRKCFVFDWPAPKKYLAHLEQLKEEELNPDFIEQVAEFCSYILSHSNVKTLSGGIPVNGPRLESLVLTYVNAISSGDLPCMENAVLALAQIENSAAVEKAIAHYEQQMGQKVQLPTETLQELLDLHRDSEREAIEVFMKNSFKDVDQMFQRKLGAQLEARRDDFCKQNSKASSDCCMALLQDIFGPLEEDVKQGTFSKPGGYRLFTQKLQELKNKYYQVPRKGIQAKEVLKKYLESKEDVADALLQTDQSLSEKEKAIEVERIKAESAEAAKKMLEEIQKKNEEMMEQKEKSYQEHVKQLTEKMERDRAQLMAEQEKTLALKLQEQERLLKEGFENESKRLQKDIWDIQMRSKSLEPICNIL | 2 | – |
| human GBP2 G domain (1-309), wild type (domain or fragment, UniProt P32456 1-309, looked up) MAPEINLPGPMSLIDNTKGQLVVNPEALKILSAITQPVVVVAIVGLYRTGKSYLMNKLAGKKNGFSLGSTVKSHTKGIWMWCVPHPKKPEHTLVLLDTEGLGDIEKGDNENDSWIFALAILLSSTFVYNSMGTINQQAMDQLHYVTELTDRIKANSSPGNNSVDDSADFVSFFPAFVWTLRDFTLELEVDGEPITADDYLELSLKLRKGTDKKSKSFNDPRLCIRKFFPKRKCFVFDWPAPKKYLAHLEQLKEEELNPDFIEQVAEFCSYILSHSNVKTLSGGIPVNGPRLESLVLTYVNAISSGDLPC | – | 2 |
